The target of this test is Peptide-3B (NME1 H118, 1-pTza) (mammalian). In words: peptide dot blot array.

Take 1-pHis mAb SC1-1 (antibody): the lowest amount detected came to 1 ng.

Values taken from patent publication US20170210824A1.
